The text below walks through data of patent US20100209400A1, “TAK1-Mediated Regulation of Osteogenesis” (priority 2003, published 2010).

Experiment [1] relates to SMAD1-mediated transcription. In words: SMAD1-SBE CAT reporter assay. The conditions noted are these: following activation by constitutively active receptors. The format is cell-based, human. Here is the method:
(§1) Reporter assays using the GALA DNA binding domain fused to various forms of SMAD proteins were performed as described (Meersseman, G at al, Mech. Dev, 61: 127-140, 1997). Briefly, 420 nanograms (ng) DNA was transfected/well (24 well-plate seeded with 1×10^5 HEK 293T cells) one day prior to transfection. The DNA mix included a plasmid expressing β-galactosidase under the control of the RSV promoter, for normalization purposes and a reporter plasmid encoding firefly luciferase under the control of 5 GAL4 binding sites upstream of a minimal TATA box (pG5 luc, Promega, Mannheim) and combinations of effector plasmids. The DNA content was normalized with empty vector.
Cells were harvested and lysed. β-Galactosidase (β-gal) activity was measured via the luminescent β-galactosidase kit II (Clontech, Palo Alto, Calif.), and luciferase activity via the luciferase assay system (Promega, Mannheim). All results are expressed as luciferase activity normalized with β-gal values (“relative luciferase activities”). Reporter assays with the SMAD1 DNA binding element SBE-9 (GCCG×9) (Kusanagi K et al, Mol Biol Cell 11: 555-565, 2000) cloned into pCAT5 vector (Boshart M et al, Gene 110: 129-130, 1992) were performed similarly except that cells were lysed in CAT lysis buffer. CAT enzyme was measured via CAT ELISA assay and β-gal via chemiluminescent β-gal reporter gene assay (Roche, Mannheim). […]
(In general: In a reporter assay the amount or activity of a reporter protein is the signal.)

The test system of the next experiment is C3H10T½-BMP2 cells. The experiment is described as follows: Semi-quantitative RT-PCR of osteo-/chondrogenic marker genes and Alcian Blue staining. Conditions: co-expression in C3H10T½-BMP2 cells. It is filed as cell-based, murine. Here is the method:
Proteoglycan-secreting chondrocytes were identified by staining with Alcian Blue at pH 2.5 (Alcian Blue 8GS, Roth, Karlsruhe).
Total cellular RNA was prepared by TriReagent LS according to the manufacturer's protocol (Molecular Research Center Inc., Ohio, Miss.). Five μg of total RNA was reverse transcribed with oligo-dT primers and cDNA aliquots were subjected to PCR. RT-PCR was normalized by the transcriptional levels of HPRT. The primer pairs and PCR conditions used to evaluate osteo-/chondrogenic differentiation, for collagen Ia1, collagen IIa1, osteocalcin, and the PTH/PTHrP-receptor have been described (Hoffmann A et al, J. Cell Sci 115: 769-781, 2002).

For experiment [2], the system named is SMAD1 trans-activation potential. In words: GAL4 DBD-SMAD1 luciferase trans-activation reporter assay. The format is cell-based, human. Here is the method:
as §1
Cells were harvested and lysed. β-Galactosidase (β-gal) activity was measured via the luminescent β-galactosidase kit II (Clontech, Palo Alto, Calif.), and luciferase activity via the luciferase assay system (Promega, Mannheim). All results are expressed as luciferase activity normalized with β-gal values (“relative luciferase activities”). Reporter assays with the SMAD1 DNA binding element SBE-9 (GCCG×9) (Kusanagi K et al, Mol Biol Cell 11: 555-565, 2000) cloned into pCAT5 vector (Boshart M et al, Gene 110: 129-130, 1992) were performed similarly except that cells were lysed in CAT lysis buffer. CAT enzyme was measured via CAT ELISA assay and β-gal via chemiluminescent β-gal reporter gene assay (Roche, Mannheim).
To determine whether MH2 domains involved in TAK1 binding mediated inhibition of R-SMAD biological activity, a reporter assay measuring SMAD trans-activation potential was performed. Full-length SMAD1 and deletion mutants thereof were fused in-frame with the GAL4-DNA binding domain, and SMAD trans-activation potential was measured via UAS-driven-luciferase reporter expression (FIGS. 6B & C). The trans-activating potential of SMAD1/GAL4 hybrid molecules was measured with increasing amounts of TAK1 variants. […]

Another experiment has as its system SMAD proteins. The experiment is described as follows: Co-immunoprecipitation of TAK1 variants with SMADs from HEK293T cells. It is filed as binding. Conditions: SMAD7, R-SMADs 1-3, 5, SMAD4. The method, then:
Co-immunoprecipitation were conducted as described (Verschueren K et al, J. Biol. Chem, 274: 20489-20498, 1999). Human embryonic kidney (HEK) 293T cells were plated at 3×10^6 cells/petri dish (55 square centimeters (cm^2)) one day prior to transfection. For transient transfections, 1 μg of Flag-tagged expression plasmid and 2 μg of Myc- or HA-tagged expression plasmids were utilized. DNA content was normalized with empty vector. Transfections were performed with FuGENE6 (Roche, Mannheim). Roughly 36 hours post-transfection cells were dislodged from dishes and harvested by centrifugation. Pellets were shock frozen in liquid nitrogen. […] reactions were performed in lysis buffer. Cell extracts and immunoprecipitates were analyzed by SDS-PAGE and Western blot analysis using the appropriate antibodies.
Toward this end, co-immunoprecipitation with various combinations of wild-type TAK1 (TAK1wt) and R-SMADs, either in a latent form or post-activation by constitutively active BMP type I receptor (ALK6ca, BMPR-IB) or activin type I receptor ALK4ca (ActR-IB), I-SMADs and SMAD4, were conducted. […] TAK1 interaction with R-SMADs was typically stronger in the absence of constitutively active receptors (the exception being SMAD3), which may reflect a reduced affinity for activated, i.e. phosphorylated R-SMADs by TAK1, except with SMAD3.
SMAD proteins only bind TAK1 with an intact or a constitutively active kinase domain. Different TAK1 variants such as TAK1wt, TAK1ca, TAK1dn and two deletions, TAKDN (lacking amino acids 1-300; FIG. 1a) and TAKDC (lacking 301-606; FIG. 1a), respectively, were tested for their ability to bind to R-SMADs (using SMAD1 as a representative) or I-SMAD6 and I-SMAD7.

B1: TAK1dn: dominant-negative TAK1 mutant (K63W), kinase inactive (protein)
chain: MSTASAASSSSSSSASEMIEAPSQVLNFEEIDYKEIEVEEVVGRGAFGVVCKAKWRAKDVAIWQIESESERKAFIVELRQLSRVNHPNIVKLYGACLNPVCLVMEYAEGGSLYNVLHGAEPLPYYTAAHAMSWCLQCSQGVAYLHSMQPKALIHRDLKPPNLLLVAGGTVLKICDFGTACDIQTHMTNNKGSAAWMAPEVFEGSNYSEKCDVFSWGIILWEVITRRKPFDEIGGPAFRIMWAVHNGTRPPLIKNLPKPIESLMTRCWSKDPSQRPSMEEIVKIMTHLMRYFPGADEPLQYPCQYSDEGQSNSATSTGSFMDIASTNTSNKSDTNMEQVPATNDTIKRLESKLLKNQAKQQSESGRLSLGASRGSSVESLPPTSEGKRMSADMSEIEARIVATAGNGQPRRRSIQDLTVTGTEPGQVSSRSSSPSVRMITTSGPTSEKPARSHPWTPDDSTDTNGSDNSIPMAYLTLDHQLQPLAPCPNSKESMAVFEQHCKMAQEYMKVQTEIALLLQRKQELVAELDQDEKDQQNTSRLVQEHKKLLDENKSLSTYYQQCKKQLEVIRSQQQKRQGTS
modifications: left off: small tags and cut ends
As for B1, in experiment [1], the “inhibition of SMAD1 transcription (CAT reporter), in words” value was “minimal inhibition”. For the same molecule, the “expression of osteogenic marker genes (osteocalcin, PTH/PTHrP receptor)” value with C3H10T½-BMP2 cells is “no effect”. Besides, in experiment [2] (FIG. 6C), the “trans-activating potential of GAL4-SMAD1-MH2 and GAL4-SMAD1-L+MH2 constructs” value is “no effect”. Besides, the “trans-activation activity after sharp drop from elevated value” in experiment [2] (higher amounts of TAK1dn) was “roughly 70%”. Also, in experiment [2] (low concentrations of TAK1dn), the “increase of SMAD trans-activation” value turned out to be 35%. Also, the “binding of TAK1 variant to SMAD proteins (co-immunoprecipitation)” value in the experiment with SMAD proteins is reported as “blocked binding”.
